Results taken from patent US9969795.

Target: recombinant influenza HA3-protein (from H3N2, Wyoming, March 2003, Sino Biological Inc.) (Influenza virus H3N2 (Wyoming, March 2003))
Test: SPR imaging (IBIS MX96), antibody captured on anti-human-IgG chip, HA3 1 ug/ml; global 1:1 fit in Scrubber2

B1: AT10_004 (antibody, V domains shown)
VH: QVQLVQSGAEVRKPGASVKVSCKASGYTFTRHGISWVRQAPGQGLEWMGWISAYTGDTDYAQKFQGRVTMTTDTSTNTAYMELRSLRSDDAAVYYCARLRLQGEVVVPPSQSNWFDPWGQGTLVTVSS
VL: EIVLTQSPATLSLYPGERATLSCRASQSVSRYLAWYQQKPGQAPRLLIYDASNRATGIPARFSGSGSGTDFTLTISSLEPEDFAVYYCQQRSNWLKITFGQGTRLEIKG
For B1, the Kd was 0.07 nM, the koff was 1e-06 s⁻¹ and the kon was 14000 M⁻¹ s⁻¹.
